What was measured:
[1] = biological target: CD147 N-domain (Asp19 to Asn117 of SEQ ID NO: 1) (human); test: SPR (Biacore 3000), mAb captured by anti-mouse Fc, N-domain fragment injected
[2] = biological target: CD147 Asp19-Asn117-Fc fusion protein (human) (UniProt P35613); test: competition ELISA on coated CD147 Asp19-Asn117-Fc; competitor 2H3; 5F6 against labeled 2H3
[3] = biological target: CD147 Asp19-Asn117-Fc fusion protein (human) (UniProt P35613); test: competition ELISA on coated CD147 Asp19-Asn117-Fc; competitor 5F6; 2C8 as competitor against 5F6 on coated CD147 Asp19-Asn117-Fc
[4] = biological target: CD147 Asp19-Asn117-Fc fusion protein (human) (UniProt P35613); test: competition ELISA on coated CD147 Asp19-Asn117-Fc; competitor 2H3; 2C8 as competitor against 2H3 on coated CD147 Asp19-Asn117-Fc

| Kd [1] | IC50 [2] | IC50 [3] | IC50 [4] | Binder |
| --- | --- | --- | --- | --- |
| 0.46 nM | 1000 nM | – | – | 5F6(mIgG1) (antibody, V domains shown) VH: EMKLEESGGGLVQPGGSMKLSCVASGFTFSNYWMNWVRQSPEKGLEWVAQIRLKSYNYATHYAESVKGRFTISRDDSKSSVYLQMNNLRAEDTGIYYCTPDGSDYWGQGTTLTVSS VL: SIVMTQTPKFLLVSAGDRVTITCKASQSVSNDVAWYQQKPGQSPKLLIYYASNRYTGVPDRFTGSGYGTDFTFTISTVQAEDLAVYFCQQDYSSPYTFGGGTKLEIK |
| 0.43 nM | – | 30 nM | 30 nM | 2C8(mIgG1) (antibody, V domains shown) VH: EMKLEESGGGLVQPGGSMKLSCVASGFTFSNYRMNWVRQSPEKGLEWVAQIRLKSYNYATHYAESVKGRFTISRDDSKSSVYLQMNNLRAEDTGIYYCTPDGSDYWGQGTTLTVSS VL: DILMTQSPSSMSVSLGDTVSITCHASQGISSSIGWLQQKPGKSFKGLIYHGTNLEDGVPSRFTGSGSGADYSLTISSLESEDFADYYCVQYAQFPYTFGGGTKLEIK |

— patent publication US20140079711A1
